B1: mRNA-splicing (parent)
chain: AGUUGCUGCUGGGAGCUCCAGCACAGUGAAAUGGACAGAAGGGCAGAGCAA

Variants of: B1
Experiment: exon inclusion enrichment index; higher = more inclusion; WT1 exon 5 minigene, HEK293

| Variant | exon inclusion enrichment index |
| --- | --- |
| G5A C6U U7A G8U C9A A20C G21C | 0.0139 |
| G5A C6U U7A G8U C9A A20C G21U | 0.0238 |
| G5A C6U U7A G8U C9A A20C G21A | 0.0479 |
| G5A C6U U7A G8U C9A A37U G38U | 0.0205 |
| G5A C6U U7A G8U C9A A37U G38A | 0.0163 |
| G5A C6U U7A G8U C9A A37U G38C | 0.0673 |
| G5A C6G U7G G8A C9A | 0.00786 |
| G5A C6G U7G G8A C9U | 0.0075 |
| G5A C6G U7G G8A C9G | 0.0105 |
| G5A C6G U7G C9A U17A | 0.00695 |
| G5A C6G U7G C9A U17G | 0.00284 |
| G5A C6G U7G C9A U17C | 0.00172 |
| G5A C6U U7A G8U C9A | 0.074 |
| G5A C6U U7A G8U C9A C18U | 0.0307 |
| G5A C6U U7A G8U C9A C18G | 0.0618 |
| G5A C6U U7A G8U C9A C18A | 0.017 |
| G5A C6G U7G C9A G42C G43C | 0.0141 |
| G5A C6G U7G C9A G42C G43A | 0.0348 |
| G5A C6G U7G C9A G42C G43U | 0.00749 |
| G5A C6U U7A G8U C9A A25G G26U | 0.231 |
| G5A C6U U7A G8U C9A A25G G26A | 0.36 |

| Variant | exon inclusion enrichment index |
| --- | --- |
| G5A C6U U7A G8U C9A A25G G26C | 0.493 |
| G5A C6U U7A G8U C9A A40U G41A | 0.00198 |
| G5A C6U U7A G8U C9A A40U G41U | 0.0246 |
| G5A C6U U7A G8U C9A A40U G41C | 0.359 |
| G5A C6U U7A G8U C9A A37C G38C | 0.0761 |
| G5A C6U U7A G8U C9A A37C G38A | 0.0896 |
| G5A C6U U7A G8U C9A A37C G38U | 0.00922 |
| G5A C6G U7G C9A U10A G11A | 0.00112 |
| G5A C6G U7G C9A U10A G11C | 0.0223 |
| G5A C6G U7G C9A U10A G11U | 0.00545 |
| G5A C6U U7A G8U C9A A23G C24U | 0.0127 |
| G5A C6U U7A G8U C9A A23G C24G | 0.259 |
| G5A C6U U7A G8U C9A A23G C24A | 0.238 |
| G5A C6U U7A G8U C9A A20C | 0.047 |
| G5A C6U U7A G8U C9A A20G | 0.102 |
| G5A C6U U7A G8U C9A A20U | 0.0779 |
| G5A C6U U7A C9A | 0.0715 |
| G5A C6U U7A C9U | 0.0151 |
| G5A C6U U7A C9G | 0.0115 |
| G5A C6G U7G C9A G42A G43U | 0.0457 |
| G5A C6G U7G C9A G42A G43C | 0.0943 |

| Variant | exon inclusion enrichment index |
| --- | --- |
| G5A C6G U7G C9A G42A G43A | 0.0419 |
| G5A C6G U7G C9A G43A | 0.00629 |
| G5A C6G U7G C9A G43C | 0.00197 |
| G5A C6G U7G C9A G43U | 0.00185 |
| G5A C6G U7G G8U C9G | 0.00173 |
| G5A C6G U7G G8U C9U | 0.00149 |
| G5A C6G U7G G8U C9A | 0.00192 |
| G5A C6U U7A G8U C9A A29U A30U | 0.00971 |
| G5A C6U U7A G8U C9A A29U A30G | 0.0618 |
| G5A C6U U7A G8U C9A A29U A30C | 0.0463 |
| G5A C6G U7G C9A U17A C18U | 0.00863 |
| G5A C6G U7G C9A U17A C18A | 0.00127 |
| G5A C6G U7G C9A U17A C18G | 0.00136 |
| G5A C6U U7A G8U C9A A31G | 0.12 |
| G5A C6U U7A G8U C9A A31U | 0.0565 |
| G5A C6U U7A G8U C9A A31C | 0.077 |
| G5A C6G U7G C9A U27A G28A | 0.00156 |
| G5A C6G U7G C9A U27A G28U | 0.00161 |
| G5A C6G U7G C9A U27A G28C | 0.0045 |
| G5A C6U U7A G8U C9A A45C G46U | 0.0134 |
| G5A C6U U7A G8U C9A A45C G46A | 0.0341 |

| Variant | exon inclusion enrichment index |
| --- | --- |
| G5A C6U U7A G8U C9A A45C G46C | 0.0306 |
| G5A C6U U7A G8U C9A A14U G15U | 0.00593 |
| G5A C6U U7A G8U C9A A14U G15C | 0.00818 |
| G5A C6U U7A G8U C9A A14U G15A | 0.0025 |
| G5A C6G U7G C9G | 0.00209 |
| G5A C6G U7G C9U | 0.00241 |
| G5A C6G U7G C9A U17C C18G | 0.00304 |
| G5A C6G U7G C9A U17C C18A | 0.00107 |
| G5A C6G U7G C9A U17C C18U | 0.00126 |
| G5A C6U U7A G8U C9A A47G G48A | 0.0214 |
| G5A C6U U7A G8U C9A A47G G48C | 0.0173 |
| G5A C6U U7A G8U C9A A47G G48U | 0.00228 |
| G5A C6U U7A G8U C9A C19U A20U | 0.00982 |
| G5A C6U U7A G8U C9A C19U A20G | 0.00852 |
| G5A C6U U7A G8U C9A C19U A20C | 0.078 |
| G5A C6G U7G C9U U10G | 0.493 |
| G5A C6G U7G C9U U10C | 0.00564 |
| G5A C6G U7G C9U U10A | 0.00106 |
| G5A C6U U7A G8U C9A A30G A31C | 0.00117 |
| G5A C6U U7A G8U C9A A30G A31G | 0.00768 |
| G5A C6U U7A G8U C9A A30G A31U | 0.0123 |
